The target in experiment [1] is 6×-His-SUMO-Avs8A (E. coli ECOR07) (UniProt B7LDL1). Nature of the experiment: MST.
Experiment [2] has the same target. Nature of the experiment: mass photometry. The settings on record: scale: Bas21 mcp monomers per four Avs8 monomers.
Experiment [3] addresses T1, 6×-His-SUMO-Avs8A (E. coli ECOR07, UniProt B7LDL1 1-1283).
T1 sequence (looked up): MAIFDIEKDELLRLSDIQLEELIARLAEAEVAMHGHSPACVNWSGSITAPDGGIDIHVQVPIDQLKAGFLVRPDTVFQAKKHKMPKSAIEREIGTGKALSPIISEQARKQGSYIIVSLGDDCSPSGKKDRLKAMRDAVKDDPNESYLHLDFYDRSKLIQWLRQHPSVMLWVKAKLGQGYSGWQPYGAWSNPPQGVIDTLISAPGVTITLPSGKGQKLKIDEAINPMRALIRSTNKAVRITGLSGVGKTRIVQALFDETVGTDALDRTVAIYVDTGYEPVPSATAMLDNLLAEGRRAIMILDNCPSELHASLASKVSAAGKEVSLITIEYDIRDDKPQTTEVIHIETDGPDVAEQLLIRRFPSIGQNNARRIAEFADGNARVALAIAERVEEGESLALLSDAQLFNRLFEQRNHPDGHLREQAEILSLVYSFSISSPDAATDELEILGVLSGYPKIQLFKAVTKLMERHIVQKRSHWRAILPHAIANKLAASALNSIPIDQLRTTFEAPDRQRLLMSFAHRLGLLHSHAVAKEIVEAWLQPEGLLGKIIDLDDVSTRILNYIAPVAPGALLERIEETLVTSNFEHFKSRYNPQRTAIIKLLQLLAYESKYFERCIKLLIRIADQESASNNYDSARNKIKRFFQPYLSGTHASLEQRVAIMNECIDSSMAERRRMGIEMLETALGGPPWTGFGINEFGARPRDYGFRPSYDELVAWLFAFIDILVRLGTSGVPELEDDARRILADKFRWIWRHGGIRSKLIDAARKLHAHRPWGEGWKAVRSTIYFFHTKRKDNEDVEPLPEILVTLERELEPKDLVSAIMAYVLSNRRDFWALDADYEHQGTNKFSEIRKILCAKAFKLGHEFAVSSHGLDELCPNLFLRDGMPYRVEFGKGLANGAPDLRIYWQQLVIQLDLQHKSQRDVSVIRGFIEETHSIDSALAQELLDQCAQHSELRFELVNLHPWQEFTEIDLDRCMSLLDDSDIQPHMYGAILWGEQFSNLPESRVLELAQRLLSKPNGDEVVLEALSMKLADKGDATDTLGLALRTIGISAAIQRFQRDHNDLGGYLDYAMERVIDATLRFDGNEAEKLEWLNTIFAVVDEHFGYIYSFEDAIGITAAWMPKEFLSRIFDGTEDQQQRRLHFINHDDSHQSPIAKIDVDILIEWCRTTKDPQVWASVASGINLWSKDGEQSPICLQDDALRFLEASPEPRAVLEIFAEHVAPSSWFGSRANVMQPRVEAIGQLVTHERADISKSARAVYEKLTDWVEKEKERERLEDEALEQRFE
As to the kind of experiment: MST.

The term Kd denotes the concentration at which binding is half-saturated. One may read the stoichiometry N as the number of molecules, sites or subunits per partner or assembly. Turning to “Bas21 major capsid protein (natural protein)”, the Kd in experiment [1] came to 12 nM. The same molecule registered a stoichiometry N in experiment [2] of 2.

B1: λ gpE major capsid protein (natural protein, phage λ, UniProt P03713 1-341, looked up)
chain: MSMYTTAQLLAANEQKFKFDPLFLRLFFRESYPFTTEKVYLSQIPGLVNMALYVSPIVSGEVIRSRGGSTSEFTPGYVKPKHEVNPQMTLRRLPDEDPQNLADPAYRRRRIIMQNMRDEELAIAQVEEMQAVSAVLKGKYTMTGEAFDPVEVDMGRSEENNITQSGGTEWSKRDKSTYDPTDDIEAYALNASGVVNIIVFDPKGWALFRSFKAVKEKLDTRRGSNSELETAVKDLGKAVSYKGMYGDVAIVVYSGQYVENGVKKNFLPDNTMVLGNTQARGLRTYGCIQDADAQREGINASARYPKNWVTTGDPAREFTMIQSAPLMLLADPDEFVSVQLA
In experiment [3], B1 returned a Kd of 124 nM.

The record behind these values is PMC12875140 (Nature microbiology, 2026).
